Values of other authors as cited in PMC3079273.
Read-outs that look alike come from different tables or passages of the source.

Experiments:
[1] = biological target: nitrate reductase (Arabidopsis thaliana) (UniProt P11035)
[2] = biological target: nitrate reductase (Arabidopsis thaliana) (UniProt P11035); remark: listed apart in the source
[3] = biological target: Glu1261 (UniProt position 1261, SKAVGEPPLFL); test: kinetics; details: free oxidized enzyme reacting with free substrate (xanthine)

Sequence of nitrate reductase (Arabidopsis thaliana) (P11035 whole entry): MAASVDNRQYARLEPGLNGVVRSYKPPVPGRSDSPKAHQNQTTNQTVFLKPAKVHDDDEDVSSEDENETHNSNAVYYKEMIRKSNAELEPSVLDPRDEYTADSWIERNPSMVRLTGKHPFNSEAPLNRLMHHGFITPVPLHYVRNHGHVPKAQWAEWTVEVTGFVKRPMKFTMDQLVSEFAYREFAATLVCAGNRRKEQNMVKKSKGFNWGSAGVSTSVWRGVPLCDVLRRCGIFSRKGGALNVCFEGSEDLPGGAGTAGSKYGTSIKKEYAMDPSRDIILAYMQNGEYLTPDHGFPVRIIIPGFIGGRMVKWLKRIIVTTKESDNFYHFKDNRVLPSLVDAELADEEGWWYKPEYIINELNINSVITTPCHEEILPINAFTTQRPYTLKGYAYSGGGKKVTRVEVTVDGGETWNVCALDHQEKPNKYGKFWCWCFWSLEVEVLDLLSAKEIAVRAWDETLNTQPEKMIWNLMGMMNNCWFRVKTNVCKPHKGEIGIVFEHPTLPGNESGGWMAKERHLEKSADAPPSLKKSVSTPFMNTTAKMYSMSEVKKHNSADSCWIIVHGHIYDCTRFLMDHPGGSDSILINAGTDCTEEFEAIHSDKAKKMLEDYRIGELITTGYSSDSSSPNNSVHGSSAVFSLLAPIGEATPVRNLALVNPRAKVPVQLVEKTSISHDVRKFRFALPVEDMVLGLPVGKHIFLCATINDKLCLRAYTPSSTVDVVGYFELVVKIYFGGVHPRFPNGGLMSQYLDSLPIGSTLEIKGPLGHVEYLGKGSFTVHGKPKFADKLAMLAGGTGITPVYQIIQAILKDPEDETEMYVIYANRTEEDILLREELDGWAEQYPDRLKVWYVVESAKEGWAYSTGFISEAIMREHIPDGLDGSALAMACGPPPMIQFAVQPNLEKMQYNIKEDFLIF
Sequence of 14-3-3 lambda (P48349 whole entry): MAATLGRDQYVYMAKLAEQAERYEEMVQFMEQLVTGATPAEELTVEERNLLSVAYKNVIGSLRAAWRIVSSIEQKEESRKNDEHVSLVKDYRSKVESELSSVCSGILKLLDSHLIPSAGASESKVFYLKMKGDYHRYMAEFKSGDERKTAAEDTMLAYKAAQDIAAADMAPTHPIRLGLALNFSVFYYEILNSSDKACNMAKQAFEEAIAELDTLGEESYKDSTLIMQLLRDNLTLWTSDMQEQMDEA
Sequence of 14-3-3 omega (Q01525 whole entry): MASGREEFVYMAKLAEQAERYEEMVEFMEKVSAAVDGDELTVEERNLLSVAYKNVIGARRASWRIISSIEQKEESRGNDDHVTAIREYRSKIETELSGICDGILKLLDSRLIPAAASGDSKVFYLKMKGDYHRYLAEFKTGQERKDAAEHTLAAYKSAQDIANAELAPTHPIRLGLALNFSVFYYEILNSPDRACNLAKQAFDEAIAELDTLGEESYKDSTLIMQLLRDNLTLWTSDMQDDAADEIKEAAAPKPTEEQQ

Substance: 14-3-3 lambda (from UniProt P48349)
- Ki [1]: 0.08 µM

Substance: 14-3-3 omega (from UniProt Q01525)
- Ki [2]: 0.06 µM

Substance: Xanthine oxidoreductase (xanthine oxidase / xanthine dehydrogenase) (Bos taurus)
- pKa [3]: 6.6
